From US10100120B2, “Antibody which specifically binds to human CRTH2” (KYOWA HAKKO KIRIN CO., LTD, priority 2015, dated 2018)

Tested on: differentiation-induced human mast cells
Experiment: Reactivity against differentiation-induced human mast cells
Type: binding
Conditions: mast cells stimulated by IgE and crosslinking antibody; antibody 10 μg/mL; FIG. 14
Protocol: Mast cells were prepared according to the method described in Nature Protocols 2006, 1(4), 2178 to 2183. The mast cells after 11 weeks from the start of differentiation induction were washed with SM and seeded in a 96-well plate such that each well had 5×10^4 cells, and PE anti-human CD203c (E-NPP3) Antibody (Biolegend Inc.), Brilliant Violet 421 (trademark) anti-human CD117 (c-kit) Antibody (Biolegend Inc.), and Anti-Human Fc epsilon Receptor I alpha (FcεR1) PE (eBioscience) were added thereto to cause a reaction at 4° C. for 1 hour. After the cells were washed again, the cells were suspended with SM, and the fluorescent intensity was analyzed by flow cytometry (BD Biosciences, FACS CantoII). […]
After the cells were washed, streptavidin, Alexa Fluor 647 conjugate (Molecular Probes) diluted with SM was added to wells to which biotin-labeled LV0HV1, hu19A2 v52, ch8B1 v1, ch3C12, or ch31A5 was added, goat anti-Rat IgG Alexa 647 (Molecular Probes) diluted with SM was added to wells to which BM16 was added, and goat anti-Mouse IgG Alexa 647 (Molecular Probes) diluted with SM was added to wells to which 301108 was added at a final concentration of 10 μg/mL to cause a reaction at 4° C. for 40 minutes. After the cells were washed again, the cells were suspended with SM, and the fluorescent intensity was analyzed by flow cytometry (BD Biosciences, FACS CantoII).

B1: LV0HV1: humanized Lym2 antibody, VL LV0 (SEQ ID NO: 33), VH HV1 (SEQ ID NO: 51) (antibody, V domains shown)
VH: EVQLVESGGGVVQPGRSLRLSCAASGFTFSNYYMAWVRQAPGKGLEWVATISYDGSSTYYRDSVKGRFTISRDNAKNSLYLQMNSLRAEDTATYYCARHRGYYYSGAGYFDYWGQGTMVTVSS
VL: DIVMTQTPLSLPVTPGESASISCRSSQSLEYSDGYTYLEWYLQKPGQSPQVLIYGVSNRFSGVPDRFSGSGSGTDFTLKISRVEAEDVGVYYCFQATHDPLTFGQGTKLEIK
- reactivity against mast cells: did not exhibit reactivity
